Data: patent US20170037111A1, “Novel peptides and combination of peptides for use in immunotherapy against ovarian cancer and other cancers” (immatics biotechnologies GmbH, priority 2015, published 2017)

Each substance was assayed against HLA-A*02:01 (Homo sapiens, UniProt P04439, D140Y/D185E/D98H/E176V/E277Q/G131W/G231S/I119V/I121R/I166T/I218V/L300P/L318F/N151K/N90K/P208A/P217A/Q86G/Q94H/R138H/R169H/T345S) (assay: MHC binding assay (UV-ligand exchange, β2m ELISA, peptide exchange yield)). Details: MHC class I binding score; binding to HLA-A*02:01 ranged by peptide exchange yield (UV-ligand exchange, β2m ELISA).
Outline: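 Binding is expressed as peptide exchange yield: stabilized MHC complexes were quantified by β2m ELISA, with a 450 nm TMB read-out on streptavidin-coated plates. Complexes came from UV-ligand exchange, where UV irradiation cleaves a photolabile peptide so the candidate peptide can load.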

**Q.** How did the Peptide exchange turn out when “13 (YLMDESLNL; listed as Homo sapiens) [compound 13]” was run?
**A.** ″+++″ (≧50% = +++)

**Q.** For “301 (FLVEDLVDSL; listed as Homo sapiens) [compound 301]”, which Peptide exchange is on record?
**A.** ″+++″ (≧50% = +++)

**Q.** For “184 (YLMDINGKMWL; listed as Homo sapiens) [compound 184]”, which Peptide exchange is on record?
**A.** ″+++″ (≧50% = +++)

**Q.** With “66 (FLDENIGGVAV; listed as Homo sapiens) [compound 66]” as the substance, how does the Peptide exchange read?
**A.** ″+++″ (≧50% = +++)

**Q.** How did the Peptide exchange turn out when “550 (FLYDEIEAEVNL; listed as Homo sapiens) [compound 550]” was run?
**A.** ″+++″ (≧50% = +++)

**Q.** With “106 (LLYDAVHIVSV; listed as Homo sapiens) [compound 106]” as the substance, how does the Peptide exchange read?
**A.** ″+++″ (≧50% = +++)

**Q.** How did the Peptide exchange turn out when “447 (QLVPALAKV; listed as Homo sapiens) [compound 447]” was run?
**A.** ″++″ (≧20% = ++)

**Q.** “197 (ALGPEGGRV; listed as Homo sapiens) [compound 197]” was tested. Which Peptide exchange did it give?
**A.** ″++″ (≧20% = ++)

**Q.** How did the Peptide exchange turn out when “559 (VTVPPGPSL; listed as Homo sapiens) [compound 559]” was run?
**A.** ″++″ (≧20% = ++)

**Q.** With “382 (ALQNYIKEA; listed as Homo sapiens) [compound 382]” as the substance, how does the Peptide exchange read?
**A.** ″++″ (≧20% = ++)

**Q.** How did the Peptide exchange turn out when “433 (AMLNEPWAV; listed as Homo sapiens) [compound 433]” was run?
**A.** ″+++″ (≧50% = +++)

**Q.** Which Peptide exchange does the source give for “185 (FLIDDKGYTL; listed as Homo sapiens) [compound 185]” here?
**A.** ″++″ (≧20% = ++)

**Q.** With “349 (SLTEYLQNV; listed as Homo sapiens) [compound 349]” as the substance, how does the Peptide exchange read?
**A.** ″++++″ (≧75% = ++++)

**Q.** For “324 (FLYDEIEAEV; listed as Homo sapiens) [compound 324]”, which Peptide exchange is on record?
**A.** ″+++″ (≧50% = +++)

**Q.** How did the Peptide exchange turn out when “613 (RLLPPGAVVAV; listed as Homo sapiens) [compound 613]” was run?
**A.** ″+++″ (≧50% = +++)

**Q.** How did the Peptide exchange turn out when “121 (GVVDPRAISVL; listed as Homo sapiens) [compound 121]” was run?
**A.** ″++″ (≧20% = ++)

**Q.** How did the Peptide exchange turn out when “619 (ALQDRVPLA; listed as Homo sapiens) [compound 619]” was run?
**A.** ″+++″ (≧50% = +++)

**Q.** “601 (SAFPFPVTV; listed as Homo sapiens) [compound 601]” was tested. Which Peptide exchange did it give?
**A.** ″+++″ (≧50% = +++)

**Q.** With “43 (VLSSLEINI; listed as Homo sapiens) [compound 43]” as the substance, how does the Peptide exchange read?
**A.** ″++″ (≧20% = ++)

**Q.** For “363 (KVLDVSDLESV; listed as Homo sapiens) [compound 363]”, which Peptide exchange is on record?
**A.** ″++″ (≧20% = ++)

**Q.** For “318 (GLINTGVLSV; listed as Homo sapiens) [compound 318]”, which Peptide exchange is on record?
**A.** ″++″ (≧20% = ++)

**Q.** With “116 (YHIDEEVGF; listed as Homo sapiens) [compound 116]” as the substance, how does the Peptide exchange read?
**A.** ″+″ (≧10% = +)

**Q.** Which Peptide exchange does the source give for “328 (ALNDQVFEI; listed as Homo sapiens) [compound 328]” here?
**A.** ″+++″ (≧50% = +++)

**Q.** How did the Peptide exchange turn out when “50 (SLSELEALM; listed as Homo sapiens) [compound 50]” was run?
**A.** ″+++″ (≧50% = +++)

**Q.** “555 (YVLEGLKSV; listed as Homo sapiens) [compound 555]” was tested. Which Peptide exchange did it give?
**A.** ″+++″ (≧50% = +++)

**Q.** How did the Peptide exchange turn out when “388 (SLTIDGIRYV; listed as Homo sapiens) [compound 388]” was run?
**A.** ″+++″ (≧50% = +++)

**Q.** How did the Peptide exchange turn out when “69 (FQLDPSSGVLVTV; listed as Homo sapiens) [compound 69]” was run?
**A.** ″+++″ (≧50% = +++)

**Q.** Which Peptide exchange does the source give for “389 (LLADVTHLL; listed as Homo sapiens) [compound 389]” here?
**A.** ″++″ (≧20% = ++)

**Q.** How did the Peptide exchange turn out when “589 (KLYPQLPAEI; listed as Homo sapiens) [compound 589]” was run?
**A.** ″+++″ (≧50% = +++)

**Q.** How did the Peptide exchange turn out when “501 (LLDPNVKSIFV; listed as Homo sapiens) [compound 501]” was run?
**A.** ″+++″ (≧50% = +++)

**Q.** Which Peptide exchange does the source give for “26 (ALLELAEEL; listed as Homo sapiens) [compound 26]” here?
**A.** ″+++″ (≧50% = +++)

**Q.** “379 (IMEGTLTRV; listed as Homo sapiens) [compound 379]” was tested. Which Peptide exchange did it give?
**A.** ″++″ (≧20% = ++)

**Q.** Which Peptide exchange does the source give for “133 (KVLSNIHTV; listed as Homo sapiens) [compound 133]” here?
**A.** ″++″ (≧20% = ++)

**Q.** “74 (ALLDPEVLSIFV; listed as Homo sapiens) [compound 74]” was tested. Which Peptide exchange did it give?
**A.** ″+++″ (≧50% = +++)

**Q.** With “604 (SILDRDDIFV; listed as Homo sapiens) [compound 604]” as the substance, how does the Peptide exchange read?
**A.** ″+++″ (≧50% = +++)

**Q.** How did the Peptide exchange turn out when “436 (HLAEVSAEV; listed as Homo sapiens) [compound 436]” was run?
**A.** ″+++″ (≧50% = +++)

**Q.** Which Peptide exchange does the source give for “138 (YQYPRAILSV; listed as Homo sapiens) [compound 138]” here?
**A.** ″+++″ (≧50% = +++)

**Q.** With “88 (FLLVGDLMAV; listed as Homo sapiens) [compound 88]” as the substance, how does the Peptide exchange read?
**A.** ″+++″ (≧50% = +++)

**Q.** Which Peptide exchange does the source give for “267 (ALQDFLLSV; listed as Homo sapiens) [compound 267]” here?
**A.** ″+++″ (≧50% = +++)

**Q.** “458 (SLIDKLYNI; listed as Homo sapiens) [compound 458]” was tested. Which Peptide exchange did it give?
**A.** ″++″ (≧20% = ++)

**Q.** How did the Peptide exchange turn out when “124 (ALYETELADA; listed as Homo sapiens) [compound 124]” was run?
**A.** ″++″ (≧20% = ++)

**Q.** Which Peptide exchange does the source give for “516 (AVGPASILKEV; listed as Homo sapiens) [compound 516]” here?
**A.** ″++″ (≧20% = ++)

**Q.** How did the Peptide exchange turn out when “367 (SLQNHNHQL; listed as Homo sapiens) [compound 367]” was run?
**A.** ″+++″ (≧50% = +++)

**Q.** How did the Peptide exchange turn out when “577 (VMFEDGVLMRL; listed as Homo sapiens) [compound 577]” was run?
**A.** ″+++″ (≧50% = +++)

**Q.** Which Peptide exchange does the source give for “506 (KLLGKVETA; listed as Homo sapiens) [compound 506]” here?
**A.** ″+++″ (≧50% = +++)

**Q.** For “611 (YLLDDGTLVV; listed as Homo sapiens) [compound 611]”, which Peptide exchange is on record?
**A.** ″++++″ (≧75% = ++++)

**Q.** How did the Peptide exchange turn out when “386 (ILFRYPLTI; listed as Homo sapiens) [compound 386]” was run?
**A.** ″+++″ (≧50% = +++)

**Q.** For “111 (YVWGFYPAEV; listed as Homo sapiens) [compound 111]”, which Peptide exchange is on record?
**A.** ″+++″ (≧50% = +++)

**Q.** “170 (RLQETLSAA; listed as Homo sapiens) [compound 170]” was tested. Which Peptide exchange did it give?
**A.** ″+++″ (≧50% = +++)

**Q.** “473 (AMATESILHFA; listed as Homo sapiens) [compound 473]” was tested. Which Peptide exchange did it give?
**A.** ″+++″ (≧50% = +++)

**Q.** “377 (FLLDSSASV; listed as Homo sapiens) [compound 377]” was tested. Which Peptide exchange did it give?
**A.** ″++″ (≧20% = ++)

**Q.** How did the Peptide exchange turn out when “273 (NLFQSVREV; listed as Homo sapiens) [compound 273]” was run?
**A.** ″++″ (≧20% = ++)

**Q.** “397 (YLFGERLLEC; listed as Homo sapiens) [compound 397]” was tested. Which Peptide exchange did it give?
**A.** ″+++″ (≧50% = +++)

**Q.** Which Peptide exchange does the source give for “308 (SQYSGQLHEV; listed as Homo sapiens) [compound 308]” here?
**A.** ″+++″ (≧50% = +++)

**Q.** How did the Peptide exchange turn out when “572 (ALADLIEKELSV; listed as Homo sapiens) [compound 572]” was run?
**A.** ″+++″ (≧50% = +++)

**Q.** With “617 (ALMYESEKVGV; listed as Homo sapiens) [compound 617]” as the substance, how does the Peptide exchange read?
**A.** ″+++″ (≧50% = +++)

**Q.** “523 (YQIPRTFTL; listed as Homo sapiens) [compound 523]” was tested. Which Peptide exchange did it give?
**A.** ″++″ (≧20% = ++)

**Q.** With “238 (YLISFQTHI; listed as Homo sapiens) [compound 238]” as the substance, how does the Peptide exchange read?
**A.** ″+++″ (≧50% = +++)

**Q.** How did the Peptide exchange turn out when “383 (ALLELENSVTL; listed as Homo sapiens) [compound 383]” was run?
**A.** ″+++″ (≧50% = +++)

**Q.** “387 (ALFQATAEV; listed as Homo sapiens) [compound 387]” was tested. Which Peptide exchange did it give?
**A.** ″++++″ (≧75% = ++++)

**Q.** “428 (KLGHTDILVGV; listed as Homo sapiens) [compound 428]” was tested. Which Peptide exchange did it give?
**A.** ″++″ (≧20% = ++)

**Q.** Which Peptide exchange does the source give for “545 (LLADLLHNV; listed as Homo sapiens) [compound 545]” here?
**A.** ″+++″ (≧50% = +++)

**Q.** How did the Peptide exchange turn out when “14 (AAYGGLNEKSFV; listed as Homo sapiens) [compound 14]” was run?
**A.** ″+++″ (≧50% = +++)

**Q.** “539 (ALFDAQAQV; listed as Homo sapiens) [compound 539]” was tested. Which Peptide exchange did it give?
**A.** ″+++″ (≧50% = +++)

**Q.** For “359 (YLLPESVDL; listed as Homo sapiens) [compound 359]”, which Peptide exchange is on record?
**A.** ″+++″ (≧50% = +++)

**Q.** With “486 (AVMESIQGV; listed as Homo sapiens) [compound 486]” as the substance, how does the Peptide exchange read?
**A.** ″+++″ (≧50% = +++)

**Q.** With “31 (YLAPELFVNV; listed as Homo sapiens) [compound 31]” as the substance, how does the Peptide exchange read?
**A.** ″++″ (≧20% = ++)

**Q.** With “233 (VLSETLYEL; listed as Homo sapiens) [compound 233]” as the substance, how does the Peptide exchange read?
**A.** ″++″ (≧20% = ++)

**Q.** With “6 (VLVSDGVHSV; listed as Homo sapiens) [compound 6]” as the substance, how does the Peptide exchange read?
**A.** ″+++″ (≧50% = +++)

**Q.** How did the Peptide exchange turn out when “588 (SLLPLSHLV; listed as Homo sapiens) [compound 588]” was run?
**A.** ″+++″ (≧50% = +++)

**Q.** Which Peptide exchange does the source give for “87 (ALPEAPAPLLPHIT; listed as Homo sapiens) [compound 87]” here?
**A.** ″++″ (≧20% = ++)

**Q.** Which Peptide exchange does the source give for “228 (AMQEYIAVV; listed as Homo sapiens) [compound 228]” here?
**A.** ″++″ (≧20% = ++)

**Q.** “223 (ALLENIALYL; listed as Homo sapiens) [compound 223]” was tested. Which Peptide exchange did it give?
**A.** ″+++″ (≧50% = +++)

**Q.** Which Peptide exchange does the source give for “394 (LLAVIGGLVYL; listed as Homo sapiens) [compound 394]” here?
**A.** ″+++″ (≧50% = +++)

**Q.** For “22 (IMEENPGIFAV; listed as Homo sapiens) [compound 22]”, which Peptide exchange is on record?
**A.** ″+++″ (≧50% = +++)

**Q.** With “89 (YILPTETIYV; listed as Homo sapiens) [compound 89]” as the substance, how does the Peptide exchange read?
**A.** ″++++″ (≧75% = ++++)

**Q.** With “239 (AAFAGKLLSV; listed as Homo sapiens) [compound 239]” as the substance, how does the Peptide exchange read?
**A.** ″+++″ (≧50% = +++)

**Q.** How did the Peptide exchange turn out when “393 (GLLDTQTSQVLTA; listed as Homo sapiens) [compound 393]” was run?
**A.** ″++″ (≧20% = ++)
